The labels stand for the following.
B1: scFv; the commonest letter at each place (parent)
chain 1: EVKLDETGGGLVQPGRPMKLSCVASGFTFSDYWMNWVRQSPEKGLEWVAQIRNKPYNYETYYSDSVKGRFTISRDDSKSSVYLQMNNLRVEDMGIYYCTGSYYGMDYWGQGTSVTVS
chain 2: DVVMTQTPLSLPVSLGDQASISCRSSQSLVHSNGNTYLRWYLQKPGQSPKVLIYKVSNRFSGVPDRFSGSGSGTDFTLKISRVEAEDLGVYFCSQSTHVPWTFGGGTKLEIK

A value given as a limit tells only on which side of the number the result lay.

In the data set “fluorescein” the parent is B1. Briefly: Kd (Tite-Seq). The following applies: with fluorescein; format: scFv 4-4-20, heavy + light.
The variants in data set [1] derive from B1. Description: yeast surface expression (ratio to wild type); higher = more expressed. As to conditions: format: scFv 4-4-20, heavy + light.

Broadly, the Kd is a measure of binding affinity in units of concentration. On to chain 1 EVKLDETGGGLVQPGRPMKLSCVASGFTPQDYWMNWVRQSPEKGLEWVAQIRNKPYNYETYYSDSVKGRFTISRDDSKSSVYLQMNNLRVEDMGIYYCTGSYYGMDYWGQGTSVTVS chain 2 DVVMTQTPLSLPVSLGDQASISCRSSQSLVHSNGNTYLRWYLQKPGQSPKVLIYKVSNRFSGVPDRFSGSGSGTDFTLKISRVEAEDLGVYFCSQSTHVPWTFGGGTKLEIK [chain 1 F29P S30Q], for which, in the data set with fluorescein, the Kd is 0.0132 µM. In data set [1], the yeast surface expression amounted to 1.05.

chain 1 EVKLDETGGGLVQPGRPMKLSCVASGFTFSDYWMNWVRQSPEKGLEWVAQIRNKPYNYETYYSDSVKGRFTISRDDSKSSVYLQMNNLRVEDMGIYYCTGITYGMDYWGQGTSVTVS chain 2 DVVMTQTPLSLPVSLGDQASISCRSSQSLVHSNGNTYLRWYLQKPGQSPKVLIYKVSNRFSGVPDRFSGSGSGTDFTLKISRVEAEDLGVYFCSQSTHVPWTFGGGTKLEIK [chain 1 S101I Y102T]: the Kd with fluorescein was at least 10 µM. Moreover, the yeast surface expression in data set [1] was found to be 0.614.

As to chain 1 EVKLDETGGGLVQPGRPMKLSCVASGFTFSAYWMNMVRQSPEKGLEWVAQIRNKPYNYETYYSDSVKGRFTISRDDSKSSVYLQMNNLRVEDMGIYYCTGSYYGMDYWGQGTSVTVS chain 2 DVVMTQTPLSLPVSLGDQASISCRSSQSLVHSNGNTYLRWYLQKPGQSPKVLIYKVSNRFSGVPDRFSGSGSGTDFTLKISRVEAEDLGVYFCSQSTHVPWTFGGGTKLEIK [chain 1 D31A W36M], in the data set with fluorescein, the Kd was at least 10 µM. The yeast surface expression in data set [1] was determined as 0.551.

As for chain 1 EVKLDETGGGLVQPGRPMKLSCVASGFTGNDYWMNWVRQSPEKGLEWVAQIRNKPYNYETYYSDSVKGRFTISRDDSKSSVYLQMNNLRVEDMGIYYCTGSYYGMDYWGQGTSVTVS chain 2 DVVMTQTPLSLPVSLGDQASISCRSSQSLVHSNGNTYLRWYLQKPGQSPKVLIYKVSNRFSGVPDRFSGSGSGTDFTLKISRVEAEDLGVYFCSQSTHVPWTFGGGTKLEIK [chain 1 F29G S30N], in the data set with fluorescein, the dissociation constant (Kd) is at least 10 µM. For the same variant, the yeast surface expression in data set [1] amounted to 0.933.

Consider chain 1 EVKLDETGGGLVQPGRPMKLSCVASGFEFSDYWSNWVRQSPEKGLEWVAQIRNKPYNYETYYSDSVKGRFTISRDDSKSSVYLQMNNLRVEDMGIYYCTGSYYGMDYWGQGTSVTVS chain 2 DVVMTQTPLSLPVSLGDQASISCRSSQSLVHSNGNTYLRWYLQKPGQSPKVLIYKVSNRFSGVPDRFSGSGSGTDFTLKISRVEAEDLGVYFCSQSTHVPWTFGGGTKLEIK [chain 1 T28E M34S], for which the Kd in the data set with fluorescein amounted to 0.0592 µM. Besides, the yeast surface expression in data set [1] came to 0.742.

As to chain 1 EVKLDETGGGLVQPGRPMKLSCVASGFTFSDYWVNWVRQSPEKGLEWVAQIRNKPYNYETYYSDSVKGRFTISRDDSKSSVYLQMNNLRVEDMGIYYCTGSYYGMDYWGQGTSVTVS chain 2 DVVMTQTPLSLPVSLGDQASISCRSSQSLVHSNGNTYLRWYLQKPGQSPKVLIYKVSNRFSGVPDRFSGSGSGTDFTLKISRVEAEDLGVYFCSQSTHVPWTFGGGTKLEIK [chain 1 M34V], the dissociation constant (Kd) in the data set with fluorescein stood at 0.00361 µM. The yeast surface expression in data set [1] worked out at 0.876.

Regarding chain 1 EVKLDETGGGLVQPGRPMKLSCVASGFTFSDYWMNWVRQSPEKGLEWVAQIRNKPYNYETYYSDSVKGRFTISRDDSKSSVYLQMNNLRVEDMGIYYCTNCYYGMDYWGQGTSVTVS chain 2 DVVMTQTPLSLPVSLGDQASISCRSSQSLVHSNGNTYLRWYLQKPGQSPKVLIYKVSNRFSGVPDRFSGSGSGTDFTLKISRVEAEDLGVYFCSQSTHVPWTFGGGTKLEIK [chain 1 G100N S101C], the Kd with fluorescein is at least 10 µM. Moreover, the yeast surface expression in data set [1] was found to be 0.234.

chain 1 EVKLDETGGGLVQPGRPMKLSCVASGFTFSDYWMNWVRQSPEKGLEWVAQIRNKPYNYETYYSDSVKGRFTISRDDSKSSVYLQMNNLRVEDMGIYYCTISYYGMDPWGQGTSVTVS chain 2 DVVMTQTPLSLPVSLGDQASISCRSSQSLVHSNGNTYLRWYLQKPGQSPKVLIYKVSNRFSGVPDRFSGSGSGTDFTLKISRVEAEDLGVYFCSQSTHVPWTFGGGTKLEIK [chain 1 G100I Y107P]: the Kd with fluorescein was at least 10 µM. In addition, the yeast surface expression in data set [1] was determined as 0.276.

For the variant chain 1 EVKLDETGGGLVQPGRPMKLSCVASGFTFSDYWMNWVRQSPEKGLEWVAQIRNKPYNYETYYSDSVKGRFTISRDDSKSSVYLQMNNLRVEDMGIYYCTGSYYGMKYWLQGTSVTVS chain 2 DVVMTQTPLSLPVSLGDQASISCRSSQSLVHSNGNTYLRWYLQKPGQSPKVLIYKVSNRFSGVPDRFSGSGSGTDFTLKISRVEAEDLGVYFCSQSTHVPWTFGGGTKLEIK [chain 1 D106K G109L], the Kd with fluorescein is at least 10 µM. Besides, the yeast surface expression in data set [1] was 0.324.

chain 1 EVKLDETGGGLVQPGRPMKLSCVASGFTISETWMNWVRQSPEKGLEWVAQIRNKPYNYETYYSDSVKGRFTISRDDSKSSVYLQMNNLRVEDMGIYYCTGSYYGMDYWGQGTSVTVS chain 2 DVVMTQTPLSLPVSLGDQASISCRSSQSLVHSNGNTYLRWYLQKPGQSPKVLIYKVSNRFSGVPDRFSGSGSGTDFTLKISRVEAEDLGVYFCSQSTHVPWTFGGGTKLEIK [chain 1 F29I D31E Y32T]: the Kd with fluorescein is at least 10 µM. Besides, the yeast surface expression in data set [1] came to 0.84.

For chain 1 EVKLDETGGGLVQPGRPMKLSCVASGFTFSDYWMNWVRQSPEKGLEWVAQIRNKPYNYETYYSDSVKGRFTISRDDSKSSVYLQMNNLRVEDMGIYYCTGSYYGQDYEGQGTSVTVS chain 2 DVVMTQTPLSLPVSLGDQASISCRSSQSLVHSNGNTYLRWYLQKPGQSPKVLIYKVSNRFSGVPDRFSGSGSGTDFTLKISRVEAEDLGVYFCSQSTHVPWTFGGGTKLEIK [chain 1 M105Q W108E], in the data set with fluorescein, the Kd is at least 10 µM. In data set [1], the yeast surface expression is 0.438.

chain 1 EVKLDETGGGLVQPGRPMKLSCVASGFTFSDYWMNWVRQSPEKGLEWVAQIRNKPYNYETYYSDSVKGRFTISRDDSKSSVYLQMNNLRVEDMGIYYCTGSYMGMDYMGQGTSVTVS chain 2 DVVMTQTPLSLPVSLGDQASISCRSSQSLVHSNGNTYLRWYLQKPGQSPKVLIYKVSNRFSGVPDRFSGSGSGTDFTLKISRVEAEDLGVYFCSQSTHVPWTFGGGTKLEIK [chain 1 Y103M W108M]: the Kd with fluorescein was 0.000333 µM. Moreover, the yeast surface expression in data set [1] turned out to be 1.13.
